The values that follow come from the RNAGym collection of RNA variant scans (doi:10.7554/elife.90254).

To fix the notation:
B1: OR4K15 (parent)
chain: GUUAACGGUCAUAGGCCAUGGAAACUAGGAGCACCAUUUCGCUGCCAGUGAAGAAAUGAACAAAGAAAAUCUGGGCCAGGCAGGCAUCAAAAGAAAUAGUCUUGCGCUCAACCAGAAAGUCUGUAAUCAUUUUAAGGGUA

This series covers variants of B1. The experiment in a line: self-cleavage, relative activity (ratio to wild type); higher = more cleavage; in vitro, sequencing; the parent is a self-cleaving ribozyme.
A30G G58A: the self-cleavage came to 0.67.

Regarding A22G U124G, the self-cleavage is 0.96.

Take A66G U87C: the self-cleavage came to 0.77.

In the case of A66G U87A, the self-cleavage is 1.15.

On to C88U A94G, for which the self-cleavage turned out to be 1.27.

U39A A94G: the self-cleavage stood at 1.47.

As to A4G A118G, the self-cleavage is 1.01.

As for A67U U97C, the self-cleavage amounted to 1.43.

Take U43C A125G: the self-cleavage is 0.53.

Take G44A A63C: the self-cleavage was 2.07.

A24G A110G: the self-cleavage stood at 0.17.

Regarding A62U A67G, the self-cleavage was determined as 1.19.

On to A11C A13G, for which the self-cleavage came out at 0.93.

With U43C U130C, the self-cleavage was 0.47.

On to U39C G106A, for which the self-cleavage came to 0.01.

With U2A A60G, the self-cleavage is 1.13.

On to A18G A89U, for which the self-cleavage is 1.48.

Turning to U103A A110G, the self-cleavage was 0.2.

Regarding A47U U70G, the self-cleavage stood at 1.16.

With G74A A95G, the self-cleavage came to 0.35.

Turning to U39A U120A, the self-cleavage was 1.92.

Consider A18C G28U, for which the self-cleavage came out at 1.37.

Turning to U57C G75A, the self-cleavage is 0.12.

Regarding A22U, the self-cleavage came to 1.3.

Take A23U A129U: the self-cleavage stood at 0.79.

Regarding U38A A140U, the self-cleavage amounted to 1.08.

Consider G14U A33U, for which the self-cleavage turned out to be 1.38.

Regarding A36U A116G, the self-cleavage turned out to be 0.96.

Consider A18G U87A, for which the self-cleavage was determined as 1.14.

U38G U108C: the self-cleavage was determined as 0.03.

Turning to A78U A114C, the self-cleavage stood at 0.05.

In the case of A86G C113U, the self-cleavage was determined as 0.03.

On to A66G U72C, for which the self-cleavage was 0.09.

As for C35U A69G, the self-cleavage worked out at 1.1.

For A54G U72C, the self-cleavage came to 0.23.

With G41A A114G, the self-cleavage is 0.75.

In the case of G48C, the self-cleavage is 1.46.

Turning to A86G U87C, the self-cleavage stood at 0.87.

For the variant A23U A96G, the self-cleavage was found to be 1.59.

Consider A90C U120A, for which the self-cleavage was 1.88.

With A22G U100C, the self-cleavage was 1.69.

On to U19A A126G, for which the self-cleavage was 1.38.

Consider G73U A78U, for which the self-cleavage is 0.15.

Regarding U3A A52U, the self-cleavage was determined as 0.58.

As to A92G C105U, the self-cleavage was 0.08.

As to C46U A56G, the self-cleavage amounted to 1.12.

A23G G115A: the self-cleavage stood at 0.05.

As to U38C A78U, the self-cleavage is 0.35.

For A51G G73A, the self-cleavage came out at 0.26.

In the case of U103C A134G, the self-cleavage came to 1.49.

As for A5G U9C, the self-cleavage was found to be 0.82.

Turning to U49C C128A, the self-cleavage stood at 1.11.

Regarding A91G A110U, the self-cleavage came out at 0.36.

U9C U122C: the self-cleavage was 1.15.

Consider U9C G84A, for which the self-cleavage was determined as 1.54.

As for A23U U43C, the self-cleavage stood at 1.22.

As to A59G U122C, the self-cleavage stood at 1.1.

In the case of G28A A68G, the self-cleavage worked out at 2.39.

For the variant G58U A126G, the self-cleavage is 0.8.

Take A95G A129G: the self-cleavage is 2.42.

Regarding U9C G75A, the self-cleavage amounted to 0.08.

As to A55C A129G, the self-cleavage stood at 1.2.

Regarding A22U A91G, the self-cleavage stood at 0.68.

For A69U A95G, the self-cleavage stood at 2.37.

For the variant G79U A129G, the self-cleavage turned out to be 0.04.

Turning to C35U U108A, the self-cleavage is 0.02.

In the case of U120C U131C, the self-cleavage is 0.85.

Take A5G U49C: the self-cleavage is 0.97.

For the variant A62G A94U, the self-cleavage is 2.08.

U26C A60G: the self-cleavage came to 1.61.

As to U39C A56G, the self-cleavage is 0.89.

For the variant G83A A117U, the self-cleavage is 1.21.

Turning to A11G U72A, the self-cleavage worked out at 0.38.

As to A54U U103G, the self-cleavage is 0.04.

Turning to A91U U124A, the self-cleavage came to 0.84.

With C81U A94G, the self-cleavage came out at 0.41.

For the variant A69G A96G, the self-cleavage is 1.52.

Take A64G C112U: the self-cleavage was determined as 0.01.

On to U70C, for which the self-cleavage was 0.47.

For the variant A33U U127C, the self-cleavage came to 1.

Regarding U87C A129G, the self-cleavage was 1.14.

On to A11G A125G, for which the self-cleavage was 0.38.

As to A51G A96U, the self-cleavage was 0.46.

A116G A135G: the self-cleavage is 0.5.

On to A11G U130C, for which the self-cleavage turned out to be 0.53.

Take A116G G138A: the self-cleavage came to 0.8.

As to A95C U103C, the self-cleavage came out at 1.28.

As to A60G U108C, the self-cleavage was found to be 0.03.

With A54U A78C, the self-cleavage stood at 0.29.

For U43G A54C, the self-cleavage turned out to be 1.71.

On to U38A U130C, for which the self-cleavage came to 1.47.

Take A69U U72C: the self-cleavage is 0.36.

Take A55G A63C: the self-cleavage was determined as 0.12.

For the variant U26C A92G, the self-cleavage was 1.45.

Turning to G80A A114U, the self-cleavage turned out to be 0.05.

For the variant A47U A78G, the self-cleavage is 0.17.

With A47U A78C, the self-cleavage came out at 0.08.

Consider U9A C42A, for which the self-cleavage was determined as 0.53.

With A18U U37G, the self-cleavage came out at 1.12.

Consider A60U A90G, for which the self-cleavage came out at 1.34.

Turning to U49A U102A, the self-cleavage came out at 0.95.

Turning to A52G A64U, the self-cleavage is 0.82.

Consider A24G A33G, for which the self-cleavage is 0.85.

As for A52C A140G, the self-cleavage worked out at 1.87.

Take U102A A126G: the self-cleavage turned out to be 0.43.

A30C A125G: the self-cleavage was 0.31.

On to A91G A96G, for which the self-cleavage amounted to 1.3.

In the case of A54G A125G, the self-cleavage stood at 0.81.

Regarding A11U A18G, the self-cleavage was determined as 1.38.

On to C76A U120A, for which the self-cleavage is 0.19.

For A69G U87C, the self-cleavage stood at 1.66.

For the variant U120A U130A, the self-cleavage was found to be 0.54.

Regarding U49A U87C, the self-cleavage worked out at 0.22.

Regarding U49A U87A, the self-cleavage was 1.78.

A63G G99U: the self-cleavage was 1.14.

For A69G G75C, the self-cleavage came out at 0.16.

As to A92G U124C, the self-cleavage was found to be 1.

In the case of A98G A114G, the self-cleavage was found to be 0.15.

In the case of A92G A118U, the self-cleavage amounted to 0.78.

Regarding A55U U139C, the self-cleavage worked out at 0.56.

Consider A55U A89U, for which the self-cleavage was 0.56.

In the case of U49G A68G, the self-cleavage amounted to 1.76.

On to U108C A110C, for which the self-cleavage came out at 0.

A60G A95U: the self-cleavage worked out at 0.97.

Consider A62G A67G, for which the self-cleavage stood at 0.96.

For the variant C25U A62G, the self-cleavage came out at 0.59.

In the case of U49G U132C, the self-cleavage came to 1.1.

With A5G U72A, the self-cleavage was 0.43.

For the variant C40U A126U, the self-cleavage was determined as 1.31.

For the variant C113A A114G, the self-cleavage turned out to be 0.01.

As to C34A A60G, the self-cleavage was found to be 1.39.

Regarding A24G U133C, the self-cleavage worked out at 1.14.

G41C U87C: the self-cleavage was determined as 2.03.

Consider U2C C105U, for which the self-cleavage worked out at 0.03.

For U43A U130C, the self-cleavage amounted to 1.44.

As to A27G U39C, the self-cleavage was determined as 1.14.

Take G8C A64G: the self-cleavage came out at 2.95.

Turning to A69G A111C, the self-cleavage came out at 0.02.

Take A135U G137U: the self-cleavage stood at 1.68.

For the variant A51G A135U, the self-cleavage is 0.7.

A64U A114G: the self-cleavage turned out to be 0.46.

On to U3G A5C, for which the self-cleavage is 1.53.

As for C10U U87C, the self-cleavage was 1.08.

Turning to A67G A89U, the self-cleavage worked out at 1.53.

Regarding A94G U127G, the self-cleavage came to 1.87.

Turning to U97A U132A, the self-cleavage was determined as 2.62.

Take A82G U133C: the self-cleavage stood at 0.72.

A51U U120C: the self-cleavage was 0.47.

On to G31U A129G, for which the self-cleavage amounted to 1.78.

Take A23U G136A: the self-cleavage worked out at 0.85.

With U2A A117G, the self-cleavage was determined as 0.59.

Turning to A24C A117G, the self-cleavage was 0.83.

A56G A78C: the self-cleavage was determined as 0.22.

On to A52G A117G, for which the self-cleavage stood at 1.48.

For the variant U87C A117G, the self-cleavage is 0.7.

Take A24G G74A: the self-cleavage was 0.31.

For C88A A111G, the self-cleavage came out at 0.

A24G U26A: the self-cleavage was 0.98.

In the case of A36U A86G, the self-cleavage was determined as 1.03.

In the case of G80A A90G, the self-cleavage stood at 0.18.

With U102G U120A, the self-cleavage stood at 0.77.

Turning to G50A U108A, the self-cleavage was found to be 0.01.

As to A55G U57G, the self-cleavage was 1.41.

Take A23G A82G: the self-cleavage came out at 0.57.

For U9G A89G, the self-cleavage came out at 1.46.

U87C U120A: the self-cleavage is 0.99.

Turning to C81U U132C, the self-cleavage was 0.5.
